# Results as given in the supplement of paper PMC10567573.
# B1: ZNF449 (parent)
# chain: EPHKCPECGKRFLRSSDLYRHQRL
# Variants of: B1
# Assay: protein stability index of a GFP-peptide fusion (GPS, HEK-293T) (PSI 1-6); higher = more stable
# Settings: c terminus: a fixed tail appended
# 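Further: lentivirally expressed fusions sorted by FACS into six bins by GFP to DsRed ratio, PSI derived from sequencing read proportions per bin multiplied by bin number.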
row,Variant,protein stability index
1,D17H,2.87
2,D17Y,2.21
3,D17M,2.35
4,D17E,3.82
5,D17I,2.04
6,D17V,1.69
7,D17L,2.81
8,D17A,2.32
9,D17T,2.36
10,D17W,1.72
11,D17K,2.33
12,D17G,2.58
13,D17F,1.68
14,D17S,2.61
15,D17R,2.34
16,D17Q,2.59
17,D17N,2.22
18,D17P,2.38
19,D17C,2.66
20,L13N,4.08
21,L13A,4
22,L13K,4.5
23,L13R,3.99
24,L13P,3.74

row,Variant,protein stability index
1,L13W,3.55
2,L13D,4.82
3,L13F,3.35
4,L13T,4.46
5,L13H,3.85
6,L13C,4.05
7,L13Q,4.66
8,L13V,4.32
9,L13S,3.92
10,L13G,3.88
11,L13Y,4.09
12,L13E,4.78
13,L13I,3.5
14,L13M,4.48
15,F12E,2.34
16,F12I,2.1
17,F12C,1.67
18,F12A,1.86
19,F12N,2.06
20,F12Y,2.72
21,F12W,1.93
22,F12R,2.15
23,F12L,2.54
24,F12M,2.45

row,Variant,protein stability index
1,F12D,2.13
2,F12H,3.73
3,F12K,2.88
4,F12G,2.12
5,F12T,2.32
6,F12V,1.95
7,F12S,1.86
8,F12P,2.51
9,F12Q,2.03
10,S16P,2.99
11,S16K,3.81
12,S16L,2.72
13,S16E,4.99
14,S16I,3.26
15,S16N,3.7
16,S16Q,4.27
17,S16A,3.82
18,S16M,3.4
19,S16W,2.66
20,S16D,4.06
21,S16C,3.62
22,S16T,3.94
23,S16G,3.54
24,S16R,3.52

row,Variant,protein stability index
1,S16H,3.55
2,S16Y,3.05
3,S16F,2.09
4,S16V,3.81
5,K10D,2.44
6,K10W,2.13
7,K10N,2.52
8,K10E,3.63
9,K10M,3.99
10,K10V,3.31
11,K10C,2.48
12,K10R,3.55
13,K10Q,4.08
14,K10G,2.11
15,K10Y,2.5
16,K10A,3.97
17,K10S,3.21
18,K10F,2.52
19,K10L,3.65
20,K10T,3.5
21,K10P,2.33
22,K10H,3.15
23,K10I,3.32
24,L18N,2.67

row,Variant,protein stability index
1,L18A,3.08
2,L18H,3.5
3,L18M,3.46
4,L18K,2.74
5,L18G,3.05
6,L18I,2.52
7,L18F,3.44
8,L18E,2.92
9,L18C,3.68
10,L18D,2.87
11,R11I,4.63
12,R11Y,4.39
13,R11N,4.24
14,R11T,5.01
15,R11C,4.31
16,R11G,4
17,R11A,4.71
18,R11L,4.57
19,R11W,4.26
20,R11F,4.41
21,R11D,4.27
22,R11V,4.57
23,R11M,4.26
24,R11S,5.13

row,Variant,protein stability index
1,R11E,4.84
2,R11P,3.68
3,R11Q,4.44
4,R11K,4.16
5,R11H,4.07
6,S15M,3.98
7,S15T,3.9
8,S15L,3.86
9,S15N,3.51
10,S15I,3.27
11,S15E,4.54
12,S15A,4.16
13,S15P,3.25
14,S15H,3.64
15,S15G,3.53
16,S15V,3.58
17,S15D,3.81
18,S15K,4.27
19,S15Y,4.03
20,S15Q,4.11
21,S15W,3.52
22,S15C,3.42
23,S15F,3.51
24,S15R,3.53

row,Variant,protein stability index
1,G9T,2.32
2,G9Y,2.8
3,G9W,2.12
4,G9V,2.54
5,R14K,4.11
6,R14F,3.76
7,R14P,2.2
8,R14G,2.33
9,R14Y,3.59
10,R14W,2.75
11,R14E,3.84
12,R14M,3.61
13,R14C,3.86
14,R14H,3.97
15,R14A,3.89
16,R14L,3.51
17,R14N,4.78
18,R14V,3.2
19,R14Q,3.36
20,R14S,4.61
21,R14D,4.29
22,R14T,4.61
23,R14I,2.95
